Results reported in patent US20250243260A1 (ALPINE IMMUNE SCIENCES, published 2025).

How the values were obtained:
human CD28 on cells [1] = biological target: T1, human CD28 on cells (human, UniProt P10747 19-220); experiment: cell-based or functional assay
human CD28 on cells [2] = biological target: T1, human CD28 on cells; experiment: flow cytometry, primary human T cells
Method: Binding affinity to CD28 was determined using primary human T cells which endogenously express CD28. Binding to PD-L1 was determined using SCC152 cells transduced with human PD-L1. Binding to CTLA-4 was measured using Chinese hamster ovary (CHO) cells stably transduced to express human CTLA-4.
For staining and analysis by flow cytometry, 75,000 human T cells, SCC152/PD-L1 cells, or CHO/CTLA-4 cells were plated in 96-well round-bottom plates. Cells were spun down and resuspended in staining buffer (PBS (phosphate buffered saline), 1% BSA (bovine serum albumin), 1 mM EDTA, and 0.1% sodium azide) for 20 minutes to block non-specific binding. Afterwards, cells were centrifuged, stain buffer aspirated, and then resuspended in 50 μL of a 1:5 serial dilution of each CD80-Fc candidate variant starting at 100 nM ending at 0.8 nM. Primary staining was performed on ice for 60 minutes, before washing cells in […] staining buffer three times. PE-conjugated anti-human Fc (Jackson ImmunoResearch, USA) was diluted 1:250 in 50 μL staining buffer and added to cells and incubated another 30 minutes at 4° C. Cells were washed two times in 150 μL stain buffer and then fixed in 2% formaldehyde/PBS for 5 minutes at room temperature. Samples were analyzed CytoFLEX LX flow cytometer (Beckman Coulter, USA). Median Fluorescence Intensity (MFI) was calculated for each cell type using the CytExpert software from Beckman Coulter.
Binding assays were carried out to assess the specificity and affinity of multivalent proteins to cell-expressed CTLA-4, CD28, and PD-L1 counter structures.

[3] = biological target: human CD28 (endogenously expressed on primary human T cells) (human) (UniProt P10747); experiment: flow cytometry, primary human T cells
human CTLA-4 (human) = human CTLA-4 (human) (UniProt P16410); experiment: flow cytometry on CHO/CTLA-4 cells
Chain of human CTLA-4 (human) (P16410 36-223): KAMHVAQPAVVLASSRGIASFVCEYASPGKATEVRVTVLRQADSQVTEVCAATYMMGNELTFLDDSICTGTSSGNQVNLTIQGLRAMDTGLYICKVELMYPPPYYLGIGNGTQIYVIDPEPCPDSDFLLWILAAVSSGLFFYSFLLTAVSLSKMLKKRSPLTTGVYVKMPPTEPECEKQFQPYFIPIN

MFI (anti-human Fc) at 0.8 nM [3] [MFI]	MFI (anti-human Fc) at 4 nM [3] [MFI]	MFI (anti-human Fc) at 20 nM [3] [MFI]	MFI (anti-human Fc) at 100 nM [3] [MFI]	Substance	further results
				WT CD80 ECD-Fc IgG4 (Fc fusion)	Rel. Luminescence Units (RLU) at 2 nM, K562/OKT3/PD-L1 + Jurkat/IL-2 reporter (human CD28 on cells [1]): 2830 RLU; Rel. Luminescence Units (RLU) at 10 nM, K562/OKT3/PD-L1 + Jurkat/IL-2 reporter (human CD28 on cells [1]): 2660 RLU; Rel. Luminescence Units (RLU) at 50 nM, K562/OKT3/PD-L1 + Jurkat/IL-2 reporter (human CD28 on cells [1]): 2440 RLU; Rel. Luminescence Units (RLU) at 250 nM, K562/OKT3/PD-L1 + Jurkat/IL-2 reporter (human CD28 on cells [1]): 2640 RLU; Anti-Human Fc (MFI) at 0.8 nM (human CD28 on cells [2]): 178 MFI; Anti-Human Fc (MFI) at 4 nM (human CD28 on cells [2]): 168 MFI; Anti-Human Fc (MFI) at 20 nM (human CD28 on cells [2]): 180 MFI; Anti-Human Fc (MFI) at 100 nM (human CD28 on cells [2]): 184 MFI
178	168	180	184	wild-type CD80 ECD-Fc (unmodified CD80 ECD fused to IgG4 Fc) (Fc fusion)	
				CD80_168 variant CD80 IgV-Fc (K9N, E10G, N63S, L85E) (Fc fusion)	MFI at 0.8 nM (human CTLA-4 (human)): 415 MFI; MFI at 4 nM (human CTLA-4 (human)): 631 MFI; MFI at 20 nM (human CTLA-4 (human)): 830 MFI; MFI at 100 nM (human CTLA-4 (human)): 3160 MFI; fold change vs WT CD80 at 20 nM (human CTLA-4 (human)): 0 fold
199	201	254		CD80_201-Fc, variant CD80 IgV-Fc E10G/H18Y/T28Y/M47W/T62S (Fc fusion)	
245	247	274	301	CD80_196-Fc, variant CD80 IgV-Fc V11Y/M42W/E52K/T62A/L85E (Fc fusion)	fold change of MFI vs WT CD80 at 20 nM [3]: 1.5 fold
	212		313	CD80_181-Fc, variant CD80 IgV-Fc K9S/E10R/V11Y/M47L/A71G (Fc fusion)	
193	209	224	283	CD80_227-Fc, variant CD80 IgV-Fc V11W/T28H/D46Q/V68L/L85E (Fc fusion)	fold change of MFI vs WT CD80 at 20 nM [3]: 1.2 fold
